Here are results for 41 sequences from the nanobody polyreactivity screen of Harvey et al. (2022).

The series is described as follows: yeast display, Sf9 membrane polyspecificity reagent, FACS + sequencing; frameworks hold sequencing errors. In outline:
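A nanobody's polyreactivity label depends on the gate it was sorted from. Yeast display cells were stained with 10% biotinylated, detergent-solubilized Sf9 membrane reagent for 1 hour at 4 °C, enriched on streptavidin microbeads and sorted by FACS. The low and high (top ~1%) gates were set on anti-HA fluorescence for expression and streptavidin fluorescence for reagent binding.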
“QVLLQESGGGLVQAGGSLRLSCAASGTISTDIRMGWYRLAPGKEREFVASIDGCSTTYYADSVKGRFTISRDNAKNTVYLQMNSLKPEDTEMYYCAAREATEFYLYYWGQGTQVTVSS”: the “polyreactivity (PSR sort gate)” value is recorded as “low polyreactivity”.

For the sequence “QVQLVESGGGLVQAGGSLRLSCAASGYIFVNYGMGWYRQAPGKERELVAVITNGGRTNYADSVKGRFTISRDNAKNTVYLQMNSLKPEDTAVYYCNARSFRQYYYWGQGTQVTVSS”, the “polyreactivity (PSR sort gate)” value was “high polyreactivity”.

Turning to “QVQLVESGGGLVQAGGSLRLSCAASGGTFYGYAMGWYRQAPGKERELVAAINYRGGRTYYADSVKGRFTISRDNAKNTVYLQMNSLKPEDTAVYYCAATSYRLDGYDYWGQGTQVTVSS”, the “polyreactivity (PSR sort gate)” value is “high polyreactivity”.

Turning to “QVQLVESGGGLVQAGGSLRLSCAVSGFNFPYYAMGWYRQAPGKERELVAAINQRGGSTYYADSVKGRFTISRDNAKNTVYLQMNSLKPEDTAVYYCAADRHSKTYYYSYGYWGQGTQVTVSS”, the “polyreactivity (PSR sort gate)” value was “high polyreactivity”.

With “QVQLVESGGGLVQAGGSLRLSCAASGSIFAYYAMGWYRQAPGKESELVADITSSGGITYYADSVKGRFTISRDNAKNTVYLQMISLKPEDTAVYYCNADSWAIGGGSYPYDYWGHGTQVTVSS”, the “polyreactivity (PSR sort gate)” value is “low polyreactivity”.

For the sequence “QVQLVESGGGLVQAGGSLRLSCAASGYIFDRYAMGWYRQAPGKERELVAAISSDGSTYYADSVKGRFTISRDNAKNTVYLQMNSLKPEDTAVYYCAADGGESAWGGYDYWGQGTQVTVSS”, the “polyreactivity (PSR sort gate)” value is recorded as “low polyreactivity”.

On to “QVQLVESGGGLDQAGGSLRLSCAASGRIFTYNTMGWYRQAPGKEREFVASITYSGSSTYYADSVKGRFTISRDNAKNTVYLEMNSLKPEVTAVYYCAHRYGYSDGDYWGQGTQVTVSS”, for which the “polyreactivity (PSR sort gate)” value is recorded as “low polyreactivity”.

For the sequence “QVQLVESGGGLVQAGGSLRLSCAASGRTFQYYAMGWYIQGPGKERELVAAISWSGGSTYYADSVKGRFTISRDNAKNTVYLQMNSLKPEDTAVYFCAAVVGRNRTRSYGYWGQGTQVTVSS”, the “polyreactivity (PSR sort gate)” value is recorded as “high polyreactivity”.

For “QVQLVESGGGLVQAGGSLRLSCAASGIPFEGYAMGWYRQAPGKERELVAAIRSSGTSTYYADSVKGRFTISRDTAKNTVYLQMNSLKPEDTAVYYCNRARSSSRYDYWGQGTQVTVSS”, the “polyreactivity (PSR sort gate)” value is recorded as “low polyreactivity”.

On to “QVQLVESGGGLVEAGGSLRLSCDASGRIFYSNAMGWSRQAPGKERELVATITRSSGITYYADSVKGRFTISRDNAKNTVYLQMNSLKPEDTAVYYCAAPWYYYGYWGQGTQVTVSS”, for which the “polyreactivity (PSR sort gate)” value was “high polyreactivity”.

“QVQLVESGGGLVQAGGSLRLSCAASGGTFAVNVMGWYRQAPGKERELVAAITSNGGSTYYADSVKGRFTISRDNAKNTVYLQMNSLTPEATAVYYCAAEGSGWYTGHYYYWGQGTQVTVSS”: the “polyreactivity (PSR sort gate)” value is on record as “low polyreactivity”.

“QVQLVESGGGLVQAGGSLRLSCAASGYTFTINAMGWYRQAPGKERELVAAISWNGGRTYYADAVKGRFTISRDNAKNTVYLQMNSLKPEDTAVCYCNADTYAAGDYWGQGTQVTVSS”: the “polyreactivity (PSR sort gate)” value is given as “high polyreactivity”.

Turning to “QVQLVESGGGLVQAGGSLRLSCAASGYIFYYYAMGWYRQAPGKERELVAAINRSGTSTYYADSVKGRFTISRDNAKNTVYLQMNSLKPEDTAVYYCAAVAGNKLYYWGQGTQVTVSS”, the “polyreactivity (PSR sort gate)” value was “high polyreactivity”.

As for “QVQLVESGGGLVQAGGSLRLSCAASGRIFGIYAMRWYRQAPGKERELVAAISYSGGSTYYADSVKGRFTISRDNAKNTVYLQMNSLNPEDTAVYYCNADYYASYYPYYSIRLDYLGQGTQVTVSS”, the “polyreactivity (PSR sort gate)” value is “low polyreactivity”.

“QVQLVESGGGLVQAGGSLRLSCAASGRTFSANAMGWYRLAPGKERELVATISSGGRTNYADSVKGRFTISRDNAKNTVYLQMNSLKPEDTAVYYCAKRGPYNRWYGRYDYWGQGTQVTVSS”: the “polyreactivity (PSR sort gate)” value is “low polyreactivity”.

For “QVQLVESGGGLVQAGGSLRLSCAASGGTFLSNAMGWYRQAPGKERELVAAISASSGSTYYADSVKGRFTISRDNAKNPVYLQMNSVKPEDTAVYYCAKERRASVVRYDYWGQGTQVTVSS”, the “polyreactivity (PSR sort gate)” value is given as “low polyreactivity”.

Turning to “QVQLVESGGGLVQAGGSLRLSCAATGMIYERNAMGWYRQAPGKERELVAAITRSGSRTYYADSVKGRFTISRDNAKNTVYLQMNSLKPEDTAVYYCAKRSGYRAHYGYWGQGTQVTVSS”, the “polyreactivity (PSR sort gate)” value is “high polyreactivity”.

“QVQLVESGGGLVQAGGSLRLSCAASGLIFARNVMGWYRQAPGKERELVAAISWSSGSTYYADSVKGRFTISRDNAKNTVSLQMNTLKQEDTAVYYCAARKIKSSQYFPTLYYYWGQGTQVTVSS”: the “polyreactivity (PSR sort gate)” value was “high polyreactivity”.

Turning to “QVQLVESGGGLVQAGGSLRLSCAASGSTLYFYAMGWYRQAPGKERELVASISGTGGRTDYADSVKGRFTISRDNAKNTVYLQMNSLKPEDTAVYYCAARGLVYQSNRYYGYRDYYYWGQGTQVTVSS”, the “polyreactivity (PSR sort gate)” value is “high polyreactivity”.

For the sequence “QVQLVESGGGLVQAGGSLRLSCAASGFIFGLYDMGWDRQAPGKERELVATISDSGGDTYYSDSVKGRFTISRDNAKNTVYLQMNSMKPEDTAVYYCAAKYVYGRGIRAYDYWVQGTQVTVSS”, the “polyreactivity (PSR sort gate)” value is recorded as “high polyreactivity”.

As to “QDQLVESGGGLDQAGGSLRLSCAATGGIIRQNVMGWYRQPPGKERELVAAISRRGVITYYADSVKGRFTISRDNAKNTVYLQMNSLKPDDTAVYYCNYKPTWDYSYWGQGTQLTVSS”, the “polyreactivity (PSR sort gate)” value is “high polyreactivity”.

Regarding “QVQLVESGGGLVQAGGSLRLSCAASGSTFSRYTMGWSRQAPGKERELVAAISYRGGSTYYADSVKGRFTISRDNAKNTVYLQMNSLKPEDTAVYYCAADAEGSASKYDYWGQGTQVTVSS”, the “polyreactivity (PSR sort gate)” value is recorded as “low polyreactivity”.

On to “QVQLVESGGGLVQAGGSLRLSCAASGRIFGDYAKGWYRQAPGKERELVAAIRFDTGSTYYADSVKGRFTISRDTAKNTVYLQMNSLKPEDTAVYYCAAQHRGVQVTFGEYDYWGQGTQVTVSS”, for which the “polyreactivity (PSR sort gate)” value was “low polyreactivity”.

With “QVQLGESGGGLVQAGGSLRLSCAGSGRTFVRSARGWSSQAPGKARELVARITSRGTSTYYADSVKGRFTSSRDNAKNTDYLLMNSLNPEDNAVYYCNNVRTFRDNSRYDYWGQGTHVTVSS”, the “polyreactivity (PSR sort gate)” value is “low polyreactivity”.

With “QVQLVESGGGLVQAGGSLRLSCAASGFTFRYYTMGWYRQAPGKERELVASISRRGGSTYYADSVKGRFTISRDNAKNTVYLQMNSLKPEDTAVYYCNTLSQVFASRAPKFDYWGHGTQVTVSS”, the “polyreactivity (PSR sort gate)” value is “high polyreactivity”.

Turning to “QVKLVESGGGLVQAGGSLRLSCAASGSIFWYNAMGWYRQAPGKERELVAAIRWRGGSTYYADSVNGRFTISRDNAKNTVYLQMNSLKPEDTAVYYCAAQVYVSQMYTSYYYWGQGTQVTVSS”, the “polyreactivity (PSR sort gate)” value was “high polyreactivity”.

Regarding “QVQLVESGGGLVQAGGSLRLSCAASGSIFSLYDMGWYRQAPGKERELVASITWSGGSTDYADSVKGRFTISRDNAKNTVYLQMNSLKPEDTAVYYCAAYSYTSIFDYWGQGTQVTVSS”, the “polyreactivity (PSR sort gate)” value was “low polyreactivity”.

Turning to “QVQLVESGGGLVKAGGSLRLSCAASGSIFPDNAMGWYRQAPGKERELVAAISEGSTSTYYADSVKGRFTISRDNAKYTVYLQMNSLKPEDTAVYYCAADYDTGYEYWGQGTQVTVSS”, the “polyreactivity (PSR sort gate)” value is reported as “low polyreactivity”.

With “QVQLVESGGALVQAGGSLRLRCAASGTFFIYAMGWYRQAPGKEREFVATISTGGSTNYADSVKGRFTISRDNAKNTVYLQMNSLKPADTAVYYCAAEWLYPHDGGYRRPMDYWGQGTKVTVSS”, the “polyreactivity (PSR sort gate)” value is listed as “low polyreactivity”.

In the case of “QGQIVESGGGLGQAGGSLRLSCAASGSIFWANAMGWYSQSPWKERELVAAISSSGGRTYYADSVKGRFTISRDNAKNTVYLQMNSLKPEDTAVHYCNKLRLPYYEQGDYWGQGTQVTVSS”, the “polyreactivity (PSR sort gate)” value is given as “high polyreactivity”.

For “QVQVVESGGGLVQAGGSLGLSCAASGGTFGYYAMGWYRQAPGKERELVAAINRSDGGTYYADSVKGRFTISRDKAKNTVYLQMTSLKPEDTAVYYCNADDFYYDEPYDYWGQGTQVTVSS”, the “polyreactivity (PSR sort gate)” value was “low polyreactivity”.

Turning to “QVQLVESGGGLVQAGGSLRLSCAASGLTFLWYAMGWYRQAPGKERELVAAITSGGRTKYADSVKGRFTISRDNAKNTVYLQMNSLKPEDTAVYYCAAYTQWWVYDYWGQGTQVTVSS”, the “polyreactivity (PSR sort gate)” value was “high polyreactivity”.

With “QVQLVESGGGLVQAGGSLRLSCAASGLIFDKYAMGWYRQAPGKERELVAAITRSSGTTYYADSVKGRFTISRDNAKNTVYLQLNSLKPEDTAVYYCAARFIWGYWGVGYYYWGLGTQVTVSS”, the “polyreactivity (PSR sort gate)” value is “low polyreactivity”.

Regarding “QVQLVESAGRLVQAGGSLRLSCAASGSTFYSYAMGWYRQAPGKEREFVAAITYSDGITYYADSVKGRFTISRDNAKNTVYLQMNSLKPEDTAVYYCAKAPIWGVTRKFDYWGQGNQVTVSS”, the “polyreactivity (PSR sort gate)” value is recorded as “high polyreactivity”.

On to “QVQLVESGGCLVPAGGSLRLSGAASGSTYHFYAMGWYRHAQGKERELVASITSRGGNTHYADSVKGRFRISRDNAKNTVYFQMNSLKPEVTAVYSCAASGGWYGTYDYWGQGTQVTVSS”, for which the “polyreactivity (PSR sort gate)” value is “low polyreactivity”.

As to “QVQLVESGGCLVQAGGSLRLSCAASGSTFSRYAMGWYRQAPGKERELVAAISWGGNTYYADSVKGRFTISRDNAKNTVYLQMNSLKPEDTAGYYCNADYSSRGANYDYWGQGTQVTVSS”, the “polyreactivity (PSR sort gate)” value is on record as “high polyreactivity”.

As to “QVQLQERGGALVQAGGSLRLICAATGNITVTGFMGWYRQSPGKERELVASIAIGGTTYYADSVKGRFSISRDNAKNTVYLQRNSLKQEDTAVSYGAARYLYYAYSYWGQGTQVTVSS”, the “polyreactivity (PSR sort gate)” value is listed as “low polyreactivity”.

On to “QVKLVESGGGLVQAGGSLRLSCADSGRIFYIYAMGWYRQSPGKERELVAAISSGGTTNYADSVKGRLTISRDNAKNTVYLQMNSLKPEDTAVYYCACYWRSRNRFYWGQGTQVTVSS”, for which the “polyreactivity (PSR sort gate)” value is “high polyreactivity”.

Take “QVQLVESGGGLVHAGGSLRLSCAASGYTFPLYAMGWYRQAPGKERELVAGINWRGGSTYYADSVKCRFTISRDNAKNTVYLQIKSLKPEDTAVYYCAADFSRYYTGGYDYWGQGTQVTVSS”: the “polyreactivity (PSR sort gate)” value is reported as “low polyreactivity”.

For “QVQLVESGGGLVQAGGSLRLSCAASGSTSVVNPMGWSRPAPGTERELVAAISWSGGSTYYADSVKGRFTISRDNAKNTVYLQMNSLKPEDTAVYYCAKRRVYYGSRYNYWGQGTQVTVSS”, the “polyreactivity (PSR sort gate)” value is “high polyreactivity”.

As for “QVQLVESGGGLVQAGGSLRLSCAASGRIFYPYAMGWYRQAPGKERELVAAIRWGGGSTYADSVKGRFTISRDNAKNTVYLQMNSLKPEDTAVYYCAAKSYPYYGYPGAYDYWGQGTQVTVSS”, the “polyreactivity (PSR sort gate)” value is “low polyreactivity”.
